The text below walks through data of patent US20230183352A1 (published 2023).

The target in assay [1] is T1, Claudin 18.2 (CLDN18.2), expressed on CHOS-CLDN 18.2 / HEK293-CLDN 18.2 / HCC827-CLDN 18.2 cells (human, UniProt P56856-2 1-261).
T1 construct: whole, on cells; The species is not repeated for the CHOS-CLDN 18.2 cells; also called claudin-18A2
Put plainly: FACS, CHOS-CLDN18.2 cells, 20 µg/ml. In general terms: A flow cytometer gives signals particle by particle.
Protocol: (§1) The initial concentration of the antibody was 20 μg/ml, it was diluted at 1:4, and incubated at 4° C. for 60 min.

For assay [2], the target named is T1, Claudin 18.2 (CLDN18.2), expressed on …. Put plainly: FACS, CHOS-CLDN18.2 cells, 10 µg/ml.
Protocol: The initial concentration of the antibody was 20 μg/mkit was diluted at 1:4, and incubated at 4° C. for 60 min.
The target is the same in assay [3]. Put plainly: FACS, CHOS-CLDN18.2 cells, 0.020 µg/ml.
Protocol: as §1
Assay [4] shares this target. Put plainly: FACS, CHOS-CLDN18.2 cells, 5 µg/ml.
Protocol: as §1
The target is the same in assay [5]. Put plainly: FACS, CHOS-CLDN18.2 cells, 20 µg/ml. This is another data set of the same source.
Protocol: as §1
The target is the same in assay [6]. Put plainly: FACS, CHOS-CLDN18.2 cells, 0.078 µg/ml.
Protocol: as §1
Assay [7] has the same target. Put plainly: FACS, CHOS-CLDN18.2 cells.
Protocol: as §1
The target is the same in assay [8]. Put plainly: FACS, CHOS-CLDN18.2 cells, 1.250 µg/ml.
Protocol: as §1
The target is the same in assay [9]. Put plainly: FACS, CHOS-CLDN18.2 cells, 0.313 µg/ml.
Protocol: as §1
For assay [10] the target is unchanged. Put plainly: FACS, CHOS-CLDN18.2 cells, 0.020 µg/ml. This is another data set of the same source.
Protocol: as §1
The target is the same in assay [11]. Put plainly: FACS, CHOS-CLDN18.2 cells, 5 µg/ml. The source holds these as a separate data set.
Protocol: as §1
Assay [12] has the same target. Put plainly: FACS, CHOS-CLDN18.2 cells, 0.020 µg/ml. The source holds these as a separate data set.
Protocol: as §1
The target is the same in assay [13]. Put plainly: FACS, CHOS-CLDN18.2 cells, 0 µg/ml (background).
Protocol: as §1

B1: QP024025 (antibody, human IgG1, V domains shown)
VH: QVQLQQPGAELVRPGASVKLSCKASGYTFTSYWINWVKQRPGQGLEWIGNIYPSDSYTNYNQKFKDKATLTVDKSSSTAYMQLSSPTSEDSAVYYCTRSWRGNSFDYWGQGTTLTVSS
VL: DIVMTQSPSSLTVTAGEKVTMSCKSSQSLLNSGNQKNYLTWYQQKPGQPPKLLIYWASTRESGVPDRFTGSGSGTDFTLTISSVQAEDLAVYYCQNDYSYPFTFGSGTKLEIK
notes: also called IMAB362; 175D10(IMAB362)
In general, EC50 refers to the midpoint of the concentration-response curve. A low value points to greater potency. Turning to B1, the FACS reading amounted to 72300 in [1]; 6950 in [3]; 105000 in [4]; 72300 in [5]; 18200 in [6]; 63700 in [8]. The FACS reading is 51000 in [9]; 6950 in assay [10]; 105000 in assay [11]; 6950 in [12]; 732 in [13]. The MFI in [2] turned out to be 145000. In assay [7], this molecule had an EC50 of 0.27 µg/mL. The same molecule registered a max in assay [7] of 88600.
